Results reported in publication PMC7269643 (Science Advances, 2020).

Target: the molecule itself
Test: AUC

B1: VapB22 antitoxin (Rv2830c) from Mycobacterium tuberculosis, expressed alone from pET28b (natural protein)
chain: MTATEVKAKILSLLDEVAQGEEIEITKHGRTVARLVAATGPHALKGRFSGVAMAAADDDELFTTGVSWNVS
stoichiometry N: 2
